tested on: T1, BmoR (MarR-type regulator) (Bacteroides fragilis 638R), ORF:dbdd3c1d; assay: EMSA
T1 sequence: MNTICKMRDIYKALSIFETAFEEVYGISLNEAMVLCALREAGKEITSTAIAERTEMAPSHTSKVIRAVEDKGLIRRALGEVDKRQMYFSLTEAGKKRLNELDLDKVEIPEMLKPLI

Sequence	binding
CCTGCTACGCCTCCAATAATAATAATCTTCATTTGAATATATTTTCGTTTTAAAATAGTTTCCTATGGAAATAAACGTTTGCCGACTTAAAAAGGTTCATGGAAAAGCTTAAAAAATTAACAAGTATGGGTTATCTTACTTACGGAAGTGC (double strand) [BF638R_0572-bmoR operon promoter (bmoO), 151 bp]	binds
ACGAGACCGATAAATGTGAGTCGGTTCTTTTTCAAAAATGCTTTAATCATCTTTATTTCAGGGTGTTTTAGAATCTGTCTGAATTTTGTTCGAGATTGTTTTGAGATTTATTTTCAAGGATATTCTCTTGTCTCTGTGAAGGCATAGCGGGCTATGTGACGCATGAAAACA (double strand) [BF638R_2699-2701 operon promoter, 171 bp]	no binding
CCGGCCTCCATATCAAACAATAACCCGTTGCAACCTATGGATATTGGTGGTGTTCCATTCTATCGTACCTATGCCGTTAATTTAACCGTAAGATTCTAAAACATCTATATTGAAAGATATGAAAACATTTAAATATTTATTTGCAGGAGTTTGTTCCGTGT (double strand) [BF638R_4194 promoter (Methods text says BF638R_4199), 161 bp]	no binding
CGTCTGACAGCAAGATAAAGTCCCTTAAAAGGGCCATGTTTCTTAATCGCTTCAATAGCGTATTGCGAACAAGTAGGAGTGAAACGACATGAAGGAGGAGT (double strand) [hlyD fragment (non-competitor DNA), 101 bp]	no binding

Reference: article PMC6158253
